Assay results from patent publication US20210388081A1 (Memorial Sloan Kettering, published 2021).

How the values were obtained:
[1] = molecular target: T1, FcRL2, overexpressed on 3T3 cells (UniProt Q96LA5 20-508, limits assumed); test: phage clone on 3T3-FcRL2 cells
T1 construct: whole, on cells
T1 sequence (looked up): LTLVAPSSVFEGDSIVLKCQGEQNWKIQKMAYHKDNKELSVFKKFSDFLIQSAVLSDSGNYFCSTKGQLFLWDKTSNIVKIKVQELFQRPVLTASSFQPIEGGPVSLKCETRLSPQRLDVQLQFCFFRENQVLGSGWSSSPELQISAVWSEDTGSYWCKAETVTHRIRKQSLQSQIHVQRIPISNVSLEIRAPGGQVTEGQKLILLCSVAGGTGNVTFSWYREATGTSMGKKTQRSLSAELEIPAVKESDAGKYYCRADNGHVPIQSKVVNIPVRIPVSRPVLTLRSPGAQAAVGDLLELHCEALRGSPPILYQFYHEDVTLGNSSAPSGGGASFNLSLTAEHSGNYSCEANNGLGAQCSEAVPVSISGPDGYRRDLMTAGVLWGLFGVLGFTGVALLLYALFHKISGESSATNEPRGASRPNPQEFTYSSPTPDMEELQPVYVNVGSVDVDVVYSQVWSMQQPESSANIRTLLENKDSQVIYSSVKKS

[2] = molecular target: T2, Fc Receptor-like 5 (FcRL5), full length, overexpressed on 3T3 or Raji cells (human, UniProt Q96RD9 16-977); test: phage clone screening on cells
T2 construct: also called 3T3-FcRL5
T2 sequence: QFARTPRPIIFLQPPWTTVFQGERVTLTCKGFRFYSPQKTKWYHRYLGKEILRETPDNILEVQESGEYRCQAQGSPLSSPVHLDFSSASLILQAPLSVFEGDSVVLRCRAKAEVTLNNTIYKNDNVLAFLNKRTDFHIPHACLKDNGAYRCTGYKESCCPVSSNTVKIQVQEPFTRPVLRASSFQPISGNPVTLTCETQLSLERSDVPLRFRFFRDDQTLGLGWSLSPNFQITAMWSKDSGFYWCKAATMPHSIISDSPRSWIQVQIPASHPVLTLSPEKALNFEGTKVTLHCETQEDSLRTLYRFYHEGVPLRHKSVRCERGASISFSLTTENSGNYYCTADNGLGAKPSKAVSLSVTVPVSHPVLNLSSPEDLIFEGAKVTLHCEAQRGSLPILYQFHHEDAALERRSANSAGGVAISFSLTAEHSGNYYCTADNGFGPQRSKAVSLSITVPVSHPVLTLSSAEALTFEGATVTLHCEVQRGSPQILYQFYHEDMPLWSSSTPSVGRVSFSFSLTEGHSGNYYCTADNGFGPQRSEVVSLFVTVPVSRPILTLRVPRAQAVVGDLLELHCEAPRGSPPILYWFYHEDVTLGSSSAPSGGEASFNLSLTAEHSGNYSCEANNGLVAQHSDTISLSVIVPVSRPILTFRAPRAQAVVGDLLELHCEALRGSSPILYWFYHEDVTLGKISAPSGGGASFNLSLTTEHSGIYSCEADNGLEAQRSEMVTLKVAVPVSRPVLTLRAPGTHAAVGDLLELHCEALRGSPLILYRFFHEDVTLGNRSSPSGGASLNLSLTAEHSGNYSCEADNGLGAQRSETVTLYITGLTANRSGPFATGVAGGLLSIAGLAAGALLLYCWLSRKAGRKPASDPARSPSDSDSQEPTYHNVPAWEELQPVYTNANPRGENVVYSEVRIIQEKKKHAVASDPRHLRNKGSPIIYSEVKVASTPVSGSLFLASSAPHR
Procedure, shortened: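 scFv phage clones were incubated with live 3T3 cells overexpressing full-length FcRL5, then detected with mouse anti-M13 mAb and PE-anti-mouse Ig by flow cytometry. 3T3 cells expressing FcRL1, 2, 3, 4 or 6 served as negative-control targets.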

[3] = molecular target: T3, FcRL4, overexpressed on 3T3 cells (UniProt Q96PJ5 20-515, limits assumed); test: phage clone on 3T3-FcRL4 cells
T3 construct: whole, on cells
T3 sequence (looked up): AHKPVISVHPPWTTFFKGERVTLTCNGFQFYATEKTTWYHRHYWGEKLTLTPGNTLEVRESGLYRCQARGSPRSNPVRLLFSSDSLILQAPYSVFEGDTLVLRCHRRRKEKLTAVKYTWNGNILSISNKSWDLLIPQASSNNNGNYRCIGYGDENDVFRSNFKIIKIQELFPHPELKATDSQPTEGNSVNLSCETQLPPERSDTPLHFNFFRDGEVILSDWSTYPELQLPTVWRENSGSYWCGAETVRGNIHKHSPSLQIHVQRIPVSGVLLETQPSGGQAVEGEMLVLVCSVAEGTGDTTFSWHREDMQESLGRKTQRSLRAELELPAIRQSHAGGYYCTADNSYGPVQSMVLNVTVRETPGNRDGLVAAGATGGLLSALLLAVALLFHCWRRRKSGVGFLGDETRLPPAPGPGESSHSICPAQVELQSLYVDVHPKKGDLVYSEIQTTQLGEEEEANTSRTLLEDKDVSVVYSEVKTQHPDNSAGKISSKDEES

[4] = molecular target: T4, FcRL3, overexpressed on 3T3 cells (UniProt Q96P31 18-734, limits assumed); test: phage clone on 3T3-FcRL3 cells
T4 construct: whole, on cells
T4 sequence (looked up): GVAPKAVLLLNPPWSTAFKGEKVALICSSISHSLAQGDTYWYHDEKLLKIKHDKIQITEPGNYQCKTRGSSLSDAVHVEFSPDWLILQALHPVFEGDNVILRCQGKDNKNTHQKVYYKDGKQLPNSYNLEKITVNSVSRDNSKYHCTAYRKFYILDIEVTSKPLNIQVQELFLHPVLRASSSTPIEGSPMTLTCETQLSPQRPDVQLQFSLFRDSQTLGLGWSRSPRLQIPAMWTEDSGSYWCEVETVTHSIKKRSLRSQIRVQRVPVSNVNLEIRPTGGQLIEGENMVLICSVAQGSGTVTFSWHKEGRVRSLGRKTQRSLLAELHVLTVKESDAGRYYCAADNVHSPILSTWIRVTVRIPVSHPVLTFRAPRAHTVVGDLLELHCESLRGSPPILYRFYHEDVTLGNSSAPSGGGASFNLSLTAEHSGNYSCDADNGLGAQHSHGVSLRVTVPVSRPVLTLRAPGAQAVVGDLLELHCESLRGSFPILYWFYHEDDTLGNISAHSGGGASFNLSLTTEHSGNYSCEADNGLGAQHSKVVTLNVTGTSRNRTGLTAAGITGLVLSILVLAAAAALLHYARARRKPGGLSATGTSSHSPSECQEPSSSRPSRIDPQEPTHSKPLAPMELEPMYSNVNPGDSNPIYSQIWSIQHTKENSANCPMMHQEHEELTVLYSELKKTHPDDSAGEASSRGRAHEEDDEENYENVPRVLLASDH

B1: ET200-079 (scFv)
scFv: SYELTQPPSASGTPGQRVTISCSGSSSNIGSNYVYWYQQLPGTAPKLFIYRNNQRPSGVPDRFSGSKSGTSASLAISGLRSEDEADYYCAAWDDSLSGYLFGTGTKVTVLGSRGGGGSGGGGSGGGGSLEMAEVQLVESGGGLVQPGRSLRLSCAASGFTFDDYAMHWVRQAPGKGLEWVSGISWNSGSIGYADSVKGRFTISRDNAKNSLYLQMNSLRAEDTALYYCANGDSNYYYGMDVWGQGTTVTVSSTSGQAGQHHHHHHGAYPYDVPDYAS
notes: screened as phage clone; entry is VL-linker-VH-His tag-HA tag
binding result [1]: no binding
binding result [2]: binds
binding result [3]: no binding
binding result [4]: no binding

B2: ET200-097 (scFv)
scFv: LPVLTQPPSVSVSPGQTAIITCSGDKLGEKYVSWYQQKPGQSPVLVIDQDTRRPSGIPERFSGSNSGTTATLTISGTQAMDEADYYCQAWDRGVVFGGGTKLTVLGSRGGGGSGGGGSGGGGSLEMAEVQLVESGGDLVQPGRSLRLSCAASGFTFNDYAMHWVRQAPGKGLEWVSGISWSGNNIGYADSVKGRFTISRDNAKNSLYLQMNSLRAEDTALYYCAKDSIRYGITWGGFDYWGQGTLVTVSSTSGQAGQHHHHHHGAYPYDVPDYAS
notes: as for B1
binding result [1]: no binding
binding result [2]: binds
binding result [3]: no binding
binding result [4]: no binding

B3: ET200-006 (scFv)
scFv: SYVLTQPPSVSVAPGKTARITCGGNNIGSKSVHWYQQKPGQAPVVVIHYDSDRPSGIPERFSGSNSGNTATLTISRVEAGDEADYYCQVWDSSSDHPYVFGTGTKVTVLGSRGGGGSGGGGSGGGGSLEMAEVQLVQSGAEVKKPGASVKVSCKASGYTFTTYGISWVRQAPGQGLEWMGWINTYNGHTNYAQKLQGRATMTADTSTNTAYMELRSLRSDDTAVYYCARVIYGSGDYWGQGTLVTVSSTSGQAGQHHHHHHGAYPYDVPDYAS
notes: as for B1
binding result [1]: no binding
binding result [2]: binds
binding result [3]: no binding
binding result [4]: no binding

B4: ET200-081 (scFv)
scFv: QSALTQPASVSGSPGQSITISCTGTSSDIGGYNYVSWYQQHPGKAPKLMIYDVSNRPSGVSNRFSGSKSGNTASLTISGLQAEDEADYYCISYTRTWNPYVFGSGTKVTVLGSRGGGGSGGGGSGGGGSLEMAEVQLVQSGGGVVQPGGSLRLSCAASGFTFDDYAMHWVRQAPGKGLEWVSLISGDGGSTYYADSVKGRFTISRDNSKNSLYLQMNSLRTEDTALYYCAKDRAAAGYYYYGMDVWGQGTTVTVSSTSGQAGQHHHHHHGAYPYDVPDYAS
notes: as for B1
binding result [1]: no binding
binding result [2]: binds
binding result [3]: no binding
binding result [4]: no binding

B5: ET200-098 (scFv)
scFv: QPVLTQPPSVSKGLRQTATLTCTGNSNNVGNLGVAWLQQHQGHPPKLLSYRNNNRPSGISERLSASRSGNTASLTITGLQPEDEADYYCSAWDSSLSAWVFGGGTKLTVLGSRGGGGSGGGGSGGGGSLEMAEVQLVESGGVVVQPGGSLRLSCAASGFTFDDYAMHWVRQAPGKGLEWVSLINWDGGSTYYADSVKGRFTISRDNSKNSLYLQMNSLRAEDTALYYCAKGMGLRAFDYWGQGTLVTVSSTSGQAGQHHHHHHGAYPYDVPDYAS
notes: as for B1
binding result [1]: no binding
binding result [2]: binds
binding result [3]: no binding
binding result [4]: no binding

B6: ET200-100 (scFv)
scFv: NFMLTQPHSVSESPGKTVTISCTRSSGSIASNFVQWYQQRPGSAPTPMIYEDNNRPPGVPDRFSASVDSSSNSASLTISGLKTEDEADYYCQSYDTSNVVFGGGTKLTVLGSRGGGGSGGGGSGGGGSLEMAEVQLVESGGGLVQPGGSLRLSCAASGFTFSSYEMNWVRQAPGKGLEWVSYISSSGSTIYYADSVKGRFTISRDNAKNSLYLQMNSLRAEDTAVYYCARWDYGMDVWGQGTTVTVSSTSGQAGQHHHHHHGAYPYDVPDYAS
notes: as for B1
binding result [1]: no binding
binding result [2]: binds
binding result [3]: no binding
binding result [4]: no binding

B7: ET200-104 (scFv)
scFv: NFMLTQPHSVSESPGKTVTISCTRSSGSIASNYVQWYQQRPGSAPTTVIYEDNQRPSGVPDRFSGSIDSSSNSASLTISGLKTEDEADYYCQSYDSSNVVFGGGTKVTVLGSRGGGGSGGGGSGGGGSLEMAEVQLVESGGGLVQPGGSLRLSCAASGFTFSSYEMNWVRQAPGKGLEWVSYISSSGSTIYYADSVKGRFTISRDNAKNSLYLQMNSLRAEDTAVYYCARWDYGMDVWGQGTTVTVSSTSGQAGQHHHHHHGAYPYDVPDYAS
notes: as for B1
binding result [1]: no binding
binding result [2]: binds
binding result [3]: no binding
binding result [4]: no binding

B8: ET200-099 (scFv)
scFv: QSVLTQPPSASGTPGQRVTISCSGSSSNIGSNTVNWYQQLPGTAPKLLIYSNDQRPSGVPDRFSGSKSGTSASLAISGLQSEDEADYYCASWDDSLNGRYVFGTGTKVTVLGSRGGGGSGGGGSGGGGSLEMAQVQLVQSGAEVRKPGASVKVSCKTSGYTFSWYAIHWVRQAPGQRLEWMGWINAGNGNTKYSQKFQGRVSLTRDTSASTAYMELSSLRSDDTAVYYCARPDNYGSGGDVFDIWGQGTMVTVSSTSGQAGQHHHHHHGAYPYDVPDYAS
notes: as for B1
binding result [1]: no binding
binding result [2]: binds
binding result [3]: no binding
binding result [4]: no binding
